# IntAct's records for PubMed 21785410
# B1: NAP1-binding protein (Saccharomyces cerevisiae), P52919 (parent)
# chain: MLKSVQGLWKDFFGIRDDGRKREYGSLDEVRKRSALRSRRKQMRPTGKSVLKRPRKVTDRKTEEKIRTNRRKTPKRRLTKIFQTIRDVFSNDNENMSKMQNVCGDMTRILKKRSQGRPSYMDTDTAKSRILRSDAFKRKISELKYNKQRISELRSGSSDGSSGKDRNQSLYLDREILLQRQIKKRDEKIKALESKLQSLQEALNYSNEKYRILEDLLDSSNIHPSYTKSRRTMSNLARENDEIKPLKIDLSPSPIRRTNSLFTSSPMKTYNRDGNIPEMQPLQENISPACPTPPYRSRETEKEDETLSPISVDFSSYLS
# Variants of: B1
# Conditions: with nic96_yeast NIC96, P34077
# Chain of nic96_yeast NIC96, P34077 (P34077 whole entry): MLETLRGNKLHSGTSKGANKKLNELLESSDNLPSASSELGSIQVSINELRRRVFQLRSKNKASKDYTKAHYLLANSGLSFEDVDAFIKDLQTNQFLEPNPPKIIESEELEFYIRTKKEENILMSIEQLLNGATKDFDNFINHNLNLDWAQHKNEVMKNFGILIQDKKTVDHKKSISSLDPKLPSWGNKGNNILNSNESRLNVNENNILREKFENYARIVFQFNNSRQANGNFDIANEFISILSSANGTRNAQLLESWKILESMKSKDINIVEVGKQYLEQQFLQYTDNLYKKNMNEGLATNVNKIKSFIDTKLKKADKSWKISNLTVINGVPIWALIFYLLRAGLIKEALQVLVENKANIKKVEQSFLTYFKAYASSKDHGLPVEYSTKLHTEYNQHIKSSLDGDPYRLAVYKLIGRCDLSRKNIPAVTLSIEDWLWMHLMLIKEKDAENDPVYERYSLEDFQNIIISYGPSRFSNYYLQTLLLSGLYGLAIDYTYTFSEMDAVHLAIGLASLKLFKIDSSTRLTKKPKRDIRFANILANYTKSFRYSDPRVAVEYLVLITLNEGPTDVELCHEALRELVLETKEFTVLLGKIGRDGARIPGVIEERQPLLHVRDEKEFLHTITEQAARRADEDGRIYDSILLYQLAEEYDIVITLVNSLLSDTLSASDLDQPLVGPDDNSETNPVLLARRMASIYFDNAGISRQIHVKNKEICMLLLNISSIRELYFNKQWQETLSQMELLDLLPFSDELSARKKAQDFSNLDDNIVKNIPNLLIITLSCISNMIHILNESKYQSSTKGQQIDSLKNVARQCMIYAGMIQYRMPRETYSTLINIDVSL
row,Variant,effect of a mutation on the interaction
1,L2A,disrupting interaction
2,W9A,disrupting interaction
3,V5A,disrupting interaction

# The next lines start with the values.
row,effect of a mutation on the interaction,Variant
1,disrupting interaction,F12A
2,disrupting interaction,F13A
